# Assay: label from the status in PepcDB records
row,Sequence,protein production
1,MNLANIVQRGWEALGAGDFDTLVTDYVEKMIFIMPGQADVLKGRQAFRSALDNLGEILPPGFEITGLRQLEGENEIVSIVEWKSDKMIASQLSVLFKFEGDQIYEERWFVDTEQWKSVF,not failed
2,MIYLHAIDPIAFSLGPVQVHWYGLMYLAAFFSAWALGRSRILRGRLPGVDMDGFSDLLFYGMLGVVLGGRIGYMLFYAFETFLANPLILFKVWEGGMSFHGGLLGVLIACWLWARKHRLHFFDVMDFVAPLVPLGLGFGRLGNFVGGELWGKFTQAGWGVIFPHAPELADRLPAQIQAQYAAGALNQFARHPSQLYEAALEGVVMFVVLWTFSMKPRARYAVSGLFALLYGVFRFIVEFVRVPDAPIGYLAFNWLTMGQILSLPLVAVGLVLLAMSRRAPVLQPVLPVPAGVEAAK,failed
3,MRWILFILFCLLGAPAHAVSIPGVTTTTTTDSTTEPAPEPDIEQKKAAYGALADVLDNDTSRKELIDQLRTVAATPPAEPVPKIVPPTLVEEQTVLQKVTEVSRHYGEALSARFGQLYRNITGSPHKPFNPQTFSNALTHFSMLAVLVFGFYWLIRLCALPLYRKMGQWARQKNRERSNWLQLPAMIIGAFIIDLLLLALTLFVGQVLSDNLNAGSRTIAFQQSLFLNAFALIEFFKAVLRLIFCPNVAELRPFTIQDESARYWSRRLSWLSSLIGYGLIVAVPIISNQVNVQIGALANVIIMLCMTVWALYLIFRNKKEITQHLLNFAEHSLAFFSLFIRAFALVWHWLASAYFIVLFFFSLFDPGNSLKFMMGATVRSLAIIGIAAFVSGMFSRWLAKTITLSPHTQRNYPELQKRLNGWLSAALKTARILTVCVAVMLLLSAWGLFDFWNWLQNGAGQKTVDILIRIALILFFSAVGWTVLASLIENRLASDIHGRPLPSARTRTLLTLFRNALAVIISTITIMIVLSEIGVNIAPLLAGAGALGLAISFGSQTLVKDIITGVFIQFENGMNTGDLVTIGPLTGTVERMSIRSVGVRQDTGAYHIIPWSSITTFANFVRGIGSVVANYDVDRHEDADKANQALKDAVAELMENEEIRGLIIGEPNFAGIVGLSNTAFTLRVSFTTLPLKQWTVRFALDSQVKKHFDLAGVRAPVQTYQVLPAPGATPAEPLPPGEPTL,failed
4,MVAAIIAGAAVAAAAYAGKYGIEAWQAFKLRPVRPRMRKFYEGGFQATMNRREAALILGVRESVAAEKVKEAHRRVMVANHPDAGGSHYLASKINEAKDMMLGKTKNSGSAF,failed
5,IHIQQIENLMEYEFSHLVQDSEEEGFNFLIRLINGYKNKVNVFNKTGECLYGIFQGDMLIGVGGLNEDPYTKDNKIGRLRRFYISRDYRRLGLGNLLLNQLLCHAEKYFEVIVLHTDTKQGDVFYTANGFVK,failed
6,MDSKEGKLTVIGEFDEMQILKKLKKRWESAKMATFGPFDPKKEAETAAAAEKKKKEENEREREREREEALYRSQSHHDTPVCPMHHHTTIVCDHDHGCIIS,failed
7,MTNDFKKEKKEDYFVNLKAISTEVLQEKVQDNAWVIVDTRLNDAYNGWKLDGVKRGGHIKGAVDFSANWLSVYSDRKDEVLEQALKTKRIDLDKNIVLYDANGKDALVVADYLSKKGYKYLYKYDIKQWADDENLPMERYKNYQMIVPLEHHHHHH,not failed
8,MSRASVTIGARRNGAIKAAAHARIRPVANSSCLAISRQMQHRYTMFEPKPQNPALAAALIFAATAFIAGTTLLAKALGTGALGPALPALQISHGRFLFALAVILSIVAATRPRLSRPHWGLHLGRTSFGWAGVTLMFAAVAYIPMADATAIAFLNPVFGMLLAIPLLGERVGPWRWGAAVIALVGALILLRPTPGSFQPAALLALAAAAVMGMELIFIKKLAGRERPIQILLVNNAMGLAIASLAVWPVWQAPLPAQWAALAGIGLLMACAQICFVNGMARADASFVAPFSYGTLVFAALYDLAVFQVWPDAISLGGAAIILTGALTLAWREGRVRRP,failed
9,MIKKIFALPVIEQISPVLSRRKLDELDLIVVDHPQVKASFALQGAHLLSWKPAGEEEVLWLSNNTPFKNGVAIRGGVPVCWPWFGPAAQQGLPAHGFARNLPWTLKSHHEDADGVALTFELTQSEETKKFWPHDFTLLAHFRVGKTCEIDLESHGEFETTSALHTYFNVGDIAKVSVSGLGDRFIDKVNDAKENVLTDGIQTFPDRTDRVYLNPQDCSVINDEALNRIIAVGHQHHLNVVGWNPGPALSISMGDMPDDGYKTFVCVETAYASETQKVTKEKPAHLAQSIRVAKR,not failed
10,MPIFPKPKVTVILANLGTPDVPTASAVRAFLKQFLSDQRVIEIPKLLWKIILYSFVLPFRPKRVAHAYASVWGQDSPMREILFAQTDALKRQLISHYPQLDLNIVPAMTYGNPGVQHILKDLAASPQEHVILLPLFPQYSATSTAPLYDAFANWIPKQRHLPGLTIIKDYYRHPVFIQALVSSVQRFQQQHGKPQKLLMSFHGIPQPYADKGDPYADRCRETARLVAKQLGLTPDDWAISFQSRFGKQEWVKPYTDELLTTWAANGIKSVQILSPAFSADCLETLEELEIQNAELFLEAGGTSYQYIPALNTSVEHLELLRQLLQAHLDALNYSLAYSAH,failed
11,MTLATRTVILPGGLQATLVHQPQADRAAALARVAAGSHHEPSRFPGLAHLLEHLLFYGGERYQDDDRLMGWVQRQGGSVNATTLARHSAFFFEVAADALADGVARLQEMLQAPLLLREDIQREVAVIDAEYRLIQQHEPSRREAAVRHAASAPAAFRRFQVGSADALAGDLAALQAALGDFHRTHYVARRMQLWLQGPQSLEALGELAARFAAGLAAGEPPPPAPPLRLGEFTALQLAVSSQPALWRCPLIALSDNVTLLREFLLDEAPGSLMASLRQRRLAGDVALNWLYQDRYLGWLALVFASDRPEEVDRQITHWLQALQQTTPEQQQHYYQLSRRRFQALSPLDQLRQRAFGFAPGAPPAGFADFCAALQAAPSVSLACQTVSPGEPVATQGFSLPLSRWRRRPESDPALAFAFYPQAAGDLVAKCPEKAAPLLHLPLPEEPPRLLLRPPFYCSPDQAEGLARGEQLRPLLAALRHAGGHGEWHLFDGSWQLTLQLPEPGRRPEAILQAILRQLALPVASLTPPPESIAIRHLMAQLPERLGTSGHQKGWLAALAGGSAEDAQWVARQLSLITAPVNPPMPAPAPCRRGVERLVYPGGDTALLVFIPLPDGASLAALRLLAQHCEPLFFQRLRVEQQIGYVVSCRYQRVADRDGLLMALQSPDRRAGELLRCGKDFLRQLAPMDEATFRPLQQRLAAQNRASRPPEARALSALRQEYGLPELTPQAVDALRVAEVADLAREMTRRRRRWQVLFTTGD,failed
12,MFHFSLSPRRTGRGARPRARLGAMLALAFLAGGLTAGPGNAAEGAGATAERQYCACMALARSRPDQAFEKAGQWKALGGGVPARHCEAVALLGLKEYGEAARRLEALAEDVKLARGLRVDLLTQAGQAWLAVGDLSRAYANQTTALQLAGARAQSGAPALSSVLPDLYIDRAVTLAQAGRDDEATTDLTKALALQPASVTALVLRASAQRRQGRLTAARADAEAAVKRAPNDAEARLERGDVRLALGDRDGARADWLKVLELAPREGAADAARARIETLDLKVR,failed
13,PVRLEGDQVAAAEALVAAVAADSYSTTLLKGVTGSGKTEVYLEAVAECLRRGRQALVLLPEIALTSEFLARVEARFGARPAEWHSGVTATERRRLWRMVSEGQAQFVAGARSALFLPFRDLGLVVVDEEHDTSYKQEEGALYNARDMAVLRASICGCPAVLASATP,failed
14,MTTKLDPEALNVSEEARERGTGYLNVALFGVDSRDNELEKDTRSDTIMIASLNRETMEVKISSVYRDTLLEQSDGTLNKANAAYSFGGPETAVAMLNKNLDMDIEHYVTVNFNSLIDVIDAVGGVEIDVQEEEIPYICGYAMEIMRVTGRESAGVTEPGVQTLNGIQATAYARIRYTAGDDFKRAERQRDVLTKIVGKLQGASLAQINKIIDKVFPEVSTNFTLAEILEYAKDAFDYKLGETIGFPFDKTTDTLANIGSVVIPVTLDKNVEQLHKFFYGEGDTYSPSSTVNTISGKIVAKAGDRQADTDEDSQGIMQQPDESYTGGGSSGGTKTPSSGGTSGGSSQPTPTPTPTPTPTPEPDPQPQPDPGGDDGSGGSGGDTSGGGAEGTPDAGTQLEHHHHHH,failed
15,MLHGFLRLAAGAGRSLAVPAILLALGAPAQAGSLLEDCANDKLTPPNRIVACTNVLEDKAASASDQAVAYFNRANALDRNGEFDRAIADYDKAIAFNPKDAEAFNNRGLIWGHKKDFDRALADYDKAIELNPQIAIAYANRGLIWNDIKHDYVKAIADFDKAIRLDPENNGLYNLRGNAYLRKGDYDQAITSYSQAIFLDSQDPNQYFNLGLAWTTKGNLERAIADYSQAISLDANHAEAYRWRADAWVKRGDTDQALSDYTEAIRLDPGDAETFRNRARIWERKRDYDRAIADYDQAIAFAPNDAVAYNGRGWMWSLKHETDRAIVDYVKATAFDPNYVLAYDNLGLAWWDKGDLDRAISAFDQAVIVDPKYAPAYNDRGLARMDKNQYDLAIADYNMAILIDAGFVSAYRNRGNAWNRKGQFDYAIADFDQAIDHDPDDADAYVGRGRSRIYKADYTKAIADLDQAIRIGPKSARAHDTRGLAMVYKADYAGALADYDEAIRLSPKNASAYRNRGIASFYFGPPAKAQADFEQAAAIKPGDSYHAIWLDLARRRNGQPSILVDAKLDMTRWPAAVVRLLLGQQTPEATLLAADNPDATKKSEQLCEANFYVAEFQRLQHHDEEALRLYRLALGGCPRDFIEYTAATSALRVMGKAP,failed
16,MRTIWLVFIANFKRAYSNKKKFFINLLVPVAAIILAIVVNYVSSPSLNIGVNEKIKSKGGDRIVKMLKHTRGINAKVCHGELMKTEVILGKYDAVVTIKRKLGKNSFNNMSKYFEFYNVRDKKTNEDMKKLIKAYLVQNKTLNMERIVKDEQIGGLSKSERIIAFLATVLLITSVVNGAVIIRDREENTYYRYMYSPNSKFEYIFGNVIYNYIFSYIQLFIANSLMAIFGIYIGISFLKMLSYGLILTLVMTTFGTFIVCIFNKELYANMFSAAISLILSLVGGTFINYKIMPEGLRRISDVTPNRWIIKSVQYMQNGRFGSINPMMVLIAFSIMFSLAAVLVSKFHKVQFK,failed
17,MNKLSEKNTTRLASLDILRGFDLFLLVFFQPVFAALVRQLNLPFLNDILYQFDHEVWEGFRFWDLVMPLFLFMTGASMPFSLSKYVGMSGSYWLVYRRILRRVFLLFIFGMIVQGNLLGLDSSHIYLYSNTLQSIAVGYLIAAVIQLHFSFRWQIGITLLLLFIYWIPMTFLGDFTPAGNFAEQVDRCVLGRFRDGVFWNEDGTWSFSPYYNYTWIWSSLTFGVTVMLGAFAGKIMKEGKANRKKVVQTLSVIGVLLVGLAMLWSLQMPIIKRLWTGSMTLLSGGYCFLLMALFYYWIDYKGHSRGLNWLKVYGMNSITAYLLGEVVNFRCIADSVSYGLKQYIGDYYPVWLTFANYLILFFLLRMMYKRGLFLKV,failed
18,SPSKVQELSVYEINELDRHSPKILKNAFSLMFGLGDLVPFTNKLYTGDLKKRVGITAGLCVVIEHVPEKKGERFEATYSFYFGDYGHLSVQGPYLTYEDSFLAITGGAGIFEGAYGQVKLQQLVYPTKLFYTFYLKGLANDLPLELTGTPVPPSKDIEPAPEAKALEPSGVISNYTN,failed
19,MINMCYNFENVKKAYEDQLKNYIKNSLIPNLSSHANNEVVKISMKKLANLGFGYLVDSTLSSITGYYKVRDWIEELLKEELQKSGENKCCNIVLCDYPEEFEISMREIPYYVNKVVKFNGVIISASYPCVLSKKHLYICPKCGRIKEVYFSELFWDDKVFCEFCGGKMEFANVMDYENFQELVVQDLSDESEYYGIEKNPIVWYCGAKPYYFGHVKITGIVREVPRSSKSRIYELIVQAINVEKLGVEKSLINLTEEDVKNIKKVAKRGDIIDILADILIPPLLCDDAIVRKAILIQQIAPYLEDIGKINILLVTEVGIDKTAILKRIGNIPGNNFINIAALKEEELATPYDKRSNILGKFYTVCGGVIPRTLGVLCIDDFNENNKLSTKLSEAFERNVLTTNKGSFYCVPAECSFLCACYPKTKFRKFDQKKSIIKQIGISSILLKNFDLIFPIRDIPDKDRDEEVAKYIFLKYINSDNEEIEGYDYVFVDVGGEKIKIDFEFLKKYVVYSRQITPKITDEVIEKISNWYDEMRKNHYITAKQLNTVIKLSIAVARAKLKECVDEDDVKEAIDIIMHYLKQVVYNPKKGIIDVILLYKNKT,failed
